This note sets out measurements from publication PMC11018352, “Guanidine production by plant homoarginine-6-hydroxylases” (eLife, 2024).

For one series, the target named is T1, At3g50210 (2-ODD-C23.1) (Arabidopsis thaliana, UniProt Q84MB6).
T1 construct: gene 2ODDC23.1
T1 sequence (Q84MB6 1-332): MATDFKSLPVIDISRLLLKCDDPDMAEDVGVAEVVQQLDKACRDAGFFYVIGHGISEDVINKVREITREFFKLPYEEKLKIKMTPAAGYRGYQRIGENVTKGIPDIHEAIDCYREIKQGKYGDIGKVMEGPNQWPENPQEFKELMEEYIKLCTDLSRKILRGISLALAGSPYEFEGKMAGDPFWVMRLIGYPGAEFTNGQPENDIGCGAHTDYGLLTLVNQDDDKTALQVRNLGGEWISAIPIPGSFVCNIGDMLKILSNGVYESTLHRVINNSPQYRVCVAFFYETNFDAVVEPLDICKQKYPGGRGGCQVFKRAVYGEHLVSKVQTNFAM
As to the kind of experiment: inhibition of homoarginine-dependent O2 consumption. It counts as biochemical. To be noted: 0.5 mM 2-oxoglutarate, pH 7.2, 30 °C.

The target in series [1] is T2, Din11s (2-ODD-C23.2, short variant of Din11) (Arabidopsis thaliana, UniProt Q8H113).
T2 construct: gene 2ODDC23.2
T2 sequence (Q8H113 26-357): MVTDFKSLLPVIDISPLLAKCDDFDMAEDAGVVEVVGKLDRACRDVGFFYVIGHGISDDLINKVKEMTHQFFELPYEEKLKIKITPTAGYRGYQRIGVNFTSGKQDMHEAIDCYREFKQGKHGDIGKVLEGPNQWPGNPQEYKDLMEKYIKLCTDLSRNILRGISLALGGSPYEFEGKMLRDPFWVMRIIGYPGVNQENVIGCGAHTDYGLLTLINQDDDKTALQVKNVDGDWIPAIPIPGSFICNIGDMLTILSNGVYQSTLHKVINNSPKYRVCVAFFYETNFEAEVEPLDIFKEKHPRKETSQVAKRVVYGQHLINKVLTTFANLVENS
Described as above. It counts as biochemical. To be noted: competitive versus homoarginine; 1 mM canavanine, 0.5 mM 2-oxoglutarate, pH 7.2, 30 °C.

Series [2] addresses T3, Gm2-ODD-C23 (soybean 2-ODD-C23) (Glycine max, UniProt A0A0R4J5R0).
T3 construct: gene 2ODDC23
T3 sequence (A0A0R4J5R0 1-331): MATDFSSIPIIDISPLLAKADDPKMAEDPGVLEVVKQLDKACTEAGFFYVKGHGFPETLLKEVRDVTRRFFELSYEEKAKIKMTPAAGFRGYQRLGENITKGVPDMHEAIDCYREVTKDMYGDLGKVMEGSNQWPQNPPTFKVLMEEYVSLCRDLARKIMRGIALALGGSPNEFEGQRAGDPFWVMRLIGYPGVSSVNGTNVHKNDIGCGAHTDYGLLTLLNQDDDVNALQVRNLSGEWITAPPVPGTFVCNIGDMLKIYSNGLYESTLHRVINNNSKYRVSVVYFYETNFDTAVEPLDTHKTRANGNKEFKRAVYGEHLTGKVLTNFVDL
As to the kind of experiment: guanidine production in expressing E. coli culture, LC-MS. It is filed as cell-based. To be noted: 1 mM homoarginine in medium, 18 °C overnight.

The target of series [3] is T4, 2-ODD33 (Os2-ODD33, rice 2-ODD-C23 ortholog) (Oryza sativa, UniProt Q6K332).
T4 sequence (Q6K332 1-328): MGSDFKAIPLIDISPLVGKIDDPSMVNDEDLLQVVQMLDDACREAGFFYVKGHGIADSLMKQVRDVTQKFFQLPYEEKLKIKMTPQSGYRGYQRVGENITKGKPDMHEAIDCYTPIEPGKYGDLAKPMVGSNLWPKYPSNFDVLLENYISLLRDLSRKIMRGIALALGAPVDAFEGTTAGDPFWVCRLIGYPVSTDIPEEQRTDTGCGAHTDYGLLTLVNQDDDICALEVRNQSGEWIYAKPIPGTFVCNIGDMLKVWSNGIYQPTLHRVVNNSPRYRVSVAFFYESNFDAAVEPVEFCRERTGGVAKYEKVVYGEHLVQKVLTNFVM
The series is described as above. It is filed as cell-based. To be noted: 1 mM homoarginine in medium, 18 °C overnight.

Substrate in series [4]: N=C(N)NCCCC[C@H](N)C(=O)O
As to the kind of experiment: O2 consumption, Clark-type electrode. To be noted: 0.5 mM 2-oxoglutarate, Fe2+, ascorbate, pH 7.2, 30 °C. It counts as biochemical, Arabidopsis thaliana.

Substrate in series [5]: N=C(N)NCCC[C@H](N)C(=O)O
The series is described as follows: O2 consumption, Clark-type electrode. It counts as biochemical, Arabidopsis thaliana. To be noted: 0.5 mM 2-oxoglutarate, Fe2+, ascorbate, pH 7.2, 30 °C.

Substrate in series [6]: NC(=O)c1ccc[n+]([C@@H]2O[C@H](COP(=O)(O)OP(=O)(O)OC[C@H]3O[C@@H](n4cnc5c(N)ncnc54)[C@H](O)[C@@H]3O)[C@@H](O)[C@H]2O)c1
As to the kind of experiment: NAD+ reduction, spectrophotometric. It is filed as biochemical, Arabidopsis thaliana. To be noted: 1 mM AASA/P6C, pH 7.5, 35 °C, varied: cofactor.

Substrate in series [7]: N[C@@H](CCCC=O)C(=O)O
As to the kind of experiment: NAD+ reduction, spectrophotometric. It is filed as biochemical, Arabidopsis thaliana. The settings on record: 1 mM NAD+, pH 7.5, 35 °C, substrate is the AASA/P6C equilibrium mixture.

Substrate in series [8]: O=C(O)[C@@H]1CCCC=N1
The series is described as follows: NADH oxidation, spectrophotometric. It is filed as biochemical, Oryza sativa. To be noted: NADH as electron donor (fixed 1 mM), pH 7.5, 35 °C.

Regarding `N=C(N)NOCC[C@H](N)C(=O)O` [canavanine], the “inhibition of homoarginine-dependent O2 consumption” value at At3g50210 (2-ODD-C23.1) (mixed type versus homoarginine, 1 mM canavanine) was “the inhibition of At3g50210 was of the mixed type”; in series [1], “canavanine showed competitive inhibition of the reaction of Din11s with homoarginine”.
For `N=C(N)NCCCC[C@H](N)C(=O)O` [homoarginine], the “guanidine production in expressing E. coli culture, LC-MS” value is “orthologs from soybean and rice (2-ODD33) mediated homoarginine-dependent guanidine accumulation” in [2]; “orthologs from soybean and rice (2-ODD33) mediated homoarginine-dependent guanidine accumulation” in series [3].
Regarding `N=C(N)NCCC[C@H](N)C(=O)O` [arginine], the “inhibition of homoarginine-dependent O2 consumption” value at At3g50210 (2-ODD-C23.1) (competitive versus homoarginine, 1 mM arginine) was “we detected a competitive inhibition of Din11s and At3g50210”.

B1: Din11s (2-ODD-C23.2, short variant of Din11) (Arabidopsis thaliana) (protein)
chain: T2 sequence (Q8H113 26-357)
In the case of B1, the Km was found to be 1900 ± 300 µM in series [4] and 6000 ± 5100 µM in series [5].

B2: AtALDH7B4 (At1g54100, AASA-DH) (Arabidopsis thaliana) (protein)
chain: MGSANNEYEFLSEIGLTSHNLGSYVAGKWQANGPLVSTLNPANNQPIAQVVEASLEDYEQGLKACEEAAKIWMQVTAPKRGDIVRQIGDALRSKLDYLGRLLSLEMGKILAEGIGEVQEVIDMCDFAVGLSRQLNGSVIPSERPNHMMLEMWNPLGIVGVITAFNFPCAVLGWNACIALVCGNCVVWKGAPTTPLITIAMTKLVAEVLEKNNLPGAIFTAMCGGAEIGEAIAKDTRIPLVSFTGSSRVGSMVQQTVNARSGKTLLELSGNNAIIVMDDADIQLAARSVLFAAVGTAGQRCTTCRRLLLHESVYDKVLEQLLTSYKQVKIGNPLEKGTLLGPLHTPESKKNFEKGIEVIKSQGGKILTGGKAVEGEGNFVEPTIIEISADAAVVKEELFAPVLYVLKFKSFGEAVAINNSVPQGLSSSIFTRNPENIFRWIGPLGSDCGIVNVNIPTNGAEIGGAFGGEKATGGGREAGSDSWKQYMRRSTCTINYGNELPLAQGINFG
Turning to B2, the Km in series [6] is 324 ± 17 µM; in [7] it was 11.9 ± 1.0 µM.

B3: At3g50210 (2-ODD-C23.1) (Arabidopsis thaliana) (protein)
chain: T1 sequence (Q84MB6 1-332)
In the case of B3, the Km in series [4] worked out at 780 ± 150 µM.

B4: OsP5CR (pyrroline-5-carboxylate reductase from rice) (Oryza sativa Japonica Group) (protein)
chain: MAAPPQPVPAPAAASPEVFRLGFIGPGNLAESIARGVAASGVLPATAIRTAPHRRPERAEAFSSIGAHILETNAQVVDDSDVIVISVKPQIVRQVLVELKPLLSEEKLLVSIAAGIKMEDLQGWSGHRRFIRVMPNTPSAVGQAASVMCLGEMATENDENRVRSLFSAIGKVWTAEEKYFDAVTGLSGSGPAYIFLAIEAMADGGVAAGLPRDLALGLASQTVLGAATMVNKTGKHPGQLKDMVTSPAGTTITGIQELEKGAFRGTLINAVVAATKRCRELSQS
notes: recombinant, purified
B4: the Km in [8] was 173 ± 18 µM.

B5: At3g49630 (2-ODD-C23.3) (Arabidopsis thaliana) (protein)
chain: MATNFKSLLPVIDISPLVVKCDDANMAEDAGVAEVVGKLDRACRDAGFFYVIGHGISEDFIRKVRVMSHQFFELPYEEKLKIKITPAAGYRGYQRIGLNLTNGKQDMHEAIDCYKEFKQGKHGDIGKVMEGANQWPENPQEYKELMEEYIKLCIDLSRNILRGISLALGGSPYEFEGKMLTDPFWIMRILGYPGVNQENVIGCGAHTDYGLLSLINQDDDKTALQVRDLAGDWIPVIPIPGSFVCNIGDMLKILSNGVYESTLHRVINNSPRYRVCVGFFYETNFDAAVEPLDIFKEKYPGKGTSQVFKRVVYGEHLVHKLQTTFQNLVEHS
notes: b44 prints At3g49620, apparently a slip for At3g49630
B5: in series [4], the Km was 4600 ± 200 µM.

As usually defined, the Km is the concentration of substrate that gives half-maximal velocity.
